Experimental data published in the DeepSol protein solubility set.

assay: soluble on expression in E. coli; label from the status in PepcDB or PDB records

Sequence | soluble on expression in E. coli
MAHHHHHHMNPQTSLTRKQCDFTKLIMAGYDLELNNGSTQDFDVMFHGPNGTAYEGGIWKVHVTLPDDYPFASPSIGFMNKLLHPNVDEASGSVCLDVINQTWTPLYSLVNVFEVFLPQLLTYPNPSDPLNSDAASLLMKDKNIYEEKVKEYVKLYASKDLWEQQKKEKKPSNINGNISPVSELSYVDQDVQDIDLDNL | soluble
MAHHHHHHMNTHVISVGSRWVHHEVTQALRQRRGVRVEVNEELQHCDFASRASSVLYCDAHSAEMQRDQASLVLRLQEARQRCGTQPVILMVRMDSDNEVSLERLSWLNLECGVAQQCGLILVWSLDDAVQYLASLAAYAVTSLEFTGAARPYVGDAPLPVLVDALTQTPQVVTRNDVVRIANRKTSVADALMSEASEWEGIAGLDARKRLVCSTSFAHHLCPRSSASTPLYRPPAAAVSLPLIKPQNLISRSQQESPQRGRQRPLASTRP | not soluble
MAHHHHHHMNTLGSSGSAGAEAPLVGGPDALTLQTINEQQLIILRQKELVSTLKECVEELGAQLRRAGVKPLEAAQKEDGCKGTLSYVSEMQLRRRVRTLEDENKKLSDLVDELRAEVSAISAQLCAQQLHTQSEKDVWKAKVSSAEAKSVATAHLLEATGKRNQQLVHHLETLRREGEVSAYECTQWRSLATTAVSHLDHANQRYARAQINSIEEDVHRYAVNRLRLVRVAASASLSLDSGTPEETRKIWSRSAQLPKLHPAPQVFQQQQQEPVCSPLHVSYKRPLSQLLPCQPPQPTTSYSLPPPTAEHVNAETHLSPSHCAALAQT | not soluble
MAHHHHHHMPGPGLLPDGWFREESTMWPGQAQGLKVEKVLYDQPTEFQHLTVFESDPSGPWGTVMTLDGAIQLTDYDEFVYHEMLANLSLACHHKPERVLVIGGGDGGVVREVLRHKSEKDGVVQSVELVDIDGAVMQQSKKHFPQVACGFANPCVTATVGDGAAFVRNVPDSVYDVIIIDTTDPKGPASELFGADFYTNVLRILRPGGVVCNQGESVWLHRPLIEKMMGFLKKDIGFATVKYAMIYIPTYPCGSIGTLVCAKSADTDVTVPMRPVESLGFADQLKYYSSDMHKAAFVLPRFAAHLNE | soluble
MAHHHHHHMPGRPGSAEELYGLVCALQKQQQLTQVDLRAVQRRTEALRQELHCQEALIAEEQAKREELAAKHTPGDAELRLAEAHARGAARASADAAQELRGARRAFLQKCHAQVLSVGKGPTDPRRSGAPVAPSNCTPLSSAADESSSGSLSAVGLGPRREATLMPAAAVRQLLLLLREKLMRCIEVGSTAVPAPFVVASVVAPATEGGSSEQPRDCRPSDEQGAAAKVATSVMSPLTAAKSPHGPPSKSVTDACVRGASDDQSPPREKKSIGFAPECCFERVTAVPAANVNRGTRETWLTEGAPGACGSTAVVPPAANVTLDGDNHPSNACLRNDSRPRTQRFDGHFTVRVASRSATLVAEAAAMGAKRQRASEAAIAAQSSPPKAARADGDKGVSASRAPQGAGVAAAFPPAYTSNRDRLVAPVDLLSPRSAEARRNGSSGSGRRTVWTWTRGTSREP | not soluble
MAHHHHHHMPLPPVESGPAAMTRRNFLVEMNRLRVSQYMPTRKQLEEEDLRIATIRQEEKRAKHAEWAESRRKAADSYNAAGTNSGRPLPGSVSRSMRASGKGKPAENTYKLEKEEEAAKKREYNRLYEQEAKHQLAIRQATLKQMHDDEVRQMEALRKVNEEEDRKVAEAHAQAMEEERQYMERLKQSNKRELAARKAEQQAKEARDRQLQELVNENNRHRAEMDERRLKNVTRMLHLQNEQFHREAMMSKKASEAKHYEEVAATEERNRRLTKEEQEAAQRKKEQFRQDFEDCIARDKEFRRTHNYDEPMEVTRQRNELAAQSYRLVLEEERLQNAERRQQYRKDLMDQIMAKQTYRMTHLDEAGI | not soluble
MAHHHHHHMPRPEILASCHQTLENCLIESTRNSMDATNKAMLESVAAEMMSVSDGVMRLPLFLAMILPVQLGAATADACTFIPVTRDQSDIYEVFNVAGSSFGSYAAGDVLDMQSVGVYSQLRRRYVLVASSDGTSKTATFKMEDFEGQNVPIRKGRTNIYVNRIKSVVDNGSGSLLHSFTNAAGEQITVTCSLNYNIGQIALSFSKAPDKGTEIAIETEINIEAAPELIPLINHEMKKYTLFPSQFVIAAEHTVQAAYEAQREFGLDLGSLQFRTLKEYLSHEQDMLRLRIMIWRTLATDTFDIALPVNQSFDVWATIIRGKFQTVYRDIIERVKSSGAMGMFAGADAASFFKQLPKDFFQPAEDYIQTPYVHYIGTPFRTTHST | not soluble
